Measured values from publication PMC5148605, “Prefabrication of a ribosomal protein subcomplex essential for eukaryotic ribosome formation” (eLife, 2016).

Assays:
GST-Msn5 = target: T1, GST-Msn5 (S. cerevisiae, UniProt P52918 1-1224); assay: pull-down; GST-tagged importins immobilised on Glutathione Sepharose, incubated with buffer, purified Fap7 or Fap7:uS11 for 1 hr, in presence of 100 µl competing E. coli lysate; Coomassie and Western; conditions: both partners purified
T1 construct: Msn5, S. cerevisiae; source: E. coli BL21, purified as previously described
T1 sequence (looked up): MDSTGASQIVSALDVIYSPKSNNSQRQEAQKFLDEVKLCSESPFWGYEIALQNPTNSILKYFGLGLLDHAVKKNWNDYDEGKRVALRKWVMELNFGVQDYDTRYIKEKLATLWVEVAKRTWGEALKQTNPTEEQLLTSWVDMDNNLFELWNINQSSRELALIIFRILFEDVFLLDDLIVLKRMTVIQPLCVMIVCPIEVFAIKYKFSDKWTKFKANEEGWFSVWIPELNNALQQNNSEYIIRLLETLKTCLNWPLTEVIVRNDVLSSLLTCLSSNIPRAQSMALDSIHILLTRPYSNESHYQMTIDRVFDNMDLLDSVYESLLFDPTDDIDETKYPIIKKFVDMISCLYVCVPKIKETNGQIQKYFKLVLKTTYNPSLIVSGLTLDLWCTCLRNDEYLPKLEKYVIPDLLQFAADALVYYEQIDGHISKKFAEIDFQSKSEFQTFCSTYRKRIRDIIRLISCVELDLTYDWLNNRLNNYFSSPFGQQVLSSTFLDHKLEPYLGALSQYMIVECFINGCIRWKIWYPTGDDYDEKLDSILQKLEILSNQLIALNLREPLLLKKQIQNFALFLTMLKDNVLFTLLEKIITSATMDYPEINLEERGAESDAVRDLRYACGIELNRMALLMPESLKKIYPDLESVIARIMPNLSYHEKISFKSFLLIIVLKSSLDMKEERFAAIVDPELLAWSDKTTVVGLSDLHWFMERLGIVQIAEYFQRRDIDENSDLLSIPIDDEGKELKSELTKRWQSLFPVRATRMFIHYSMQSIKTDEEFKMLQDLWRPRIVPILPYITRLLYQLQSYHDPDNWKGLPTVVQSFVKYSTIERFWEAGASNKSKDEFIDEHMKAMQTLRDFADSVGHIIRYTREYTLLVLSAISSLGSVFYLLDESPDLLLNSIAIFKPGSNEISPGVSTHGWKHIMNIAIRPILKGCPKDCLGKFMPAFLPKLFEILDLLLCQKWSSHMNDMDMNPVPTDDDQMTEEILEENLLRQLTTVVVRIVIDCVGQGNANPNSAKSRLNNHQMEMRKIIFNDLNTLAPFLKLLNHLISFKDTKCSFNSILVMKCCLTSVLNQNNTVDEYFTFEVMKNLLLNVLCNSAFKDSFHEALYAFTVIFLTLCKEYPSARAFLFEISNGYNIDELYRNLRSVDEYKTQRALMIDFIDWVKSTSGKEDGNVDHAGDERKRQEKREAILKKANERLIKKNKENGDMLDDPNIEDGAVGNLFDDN

GST-Kap123 = target: T2, GST-Kap123 (S. cerevisiae, UniProt P40069 1-1113); assay: as above; conditions: both partners purified
T2 construct: importin Kap123, S. cerevisiae; source: E. coli BL21, purified as previously described
T2 sequence (looked up): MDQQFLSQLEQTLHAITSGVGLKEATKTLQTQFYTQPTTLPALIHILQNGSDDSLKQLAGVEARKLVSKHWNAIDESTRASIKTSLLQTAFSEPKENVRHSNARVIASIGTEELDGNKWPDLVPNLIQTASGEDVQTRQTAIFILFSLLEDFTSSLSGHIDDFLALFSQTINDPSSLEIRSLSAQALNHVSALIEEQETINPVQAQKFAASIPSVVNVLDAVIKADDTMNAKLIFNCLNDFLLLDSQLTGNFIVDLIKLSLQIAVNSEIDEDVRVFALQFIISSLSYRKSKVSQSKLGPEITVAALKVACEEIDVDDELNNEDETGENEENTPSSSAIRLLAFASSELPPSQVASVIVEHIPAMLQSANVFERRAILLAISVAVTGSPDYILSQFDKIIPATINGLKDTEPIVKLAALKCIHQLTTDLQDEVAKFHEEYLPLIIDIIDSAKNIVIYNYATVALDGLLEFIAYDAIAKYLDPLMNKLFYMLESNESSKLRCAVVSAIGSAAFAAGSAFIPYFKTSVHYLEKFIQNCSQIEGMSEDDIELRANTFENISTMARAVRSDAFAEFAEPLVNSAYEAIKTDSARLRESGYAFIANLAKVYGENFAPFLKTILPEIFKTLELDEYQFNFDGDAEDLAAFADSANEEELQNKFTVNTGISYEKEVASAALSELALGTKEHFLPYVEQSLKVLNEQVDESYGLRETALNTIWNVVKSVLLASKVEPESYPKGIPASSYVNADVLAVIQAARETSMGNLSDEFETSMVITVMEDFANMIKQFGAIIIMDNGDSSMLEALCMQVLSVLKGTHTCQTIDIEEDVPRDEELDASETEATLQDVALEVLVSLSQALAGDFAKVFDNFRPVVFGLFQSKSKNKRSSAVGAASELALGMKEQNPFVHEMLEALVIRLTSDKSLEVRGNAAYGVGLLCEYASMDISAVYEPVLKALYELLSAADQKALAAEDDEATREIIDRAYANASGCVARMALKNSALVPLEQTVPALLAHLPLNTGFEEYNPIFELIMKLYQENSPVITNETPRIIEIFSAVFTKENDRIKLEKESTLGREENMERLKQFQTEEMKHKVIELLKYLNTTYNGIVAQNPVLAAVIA

B1: Fap7 (enzyme, S. cerevisiae, UniProt Q12055 1-197, looked up)
chain: MEARRYGPNIIVTGTPGCGKSSTCEFLKNKLKDYKYYNISDFAKDNDCFEGYDEGRKSHIVDEDKLLDMLEPLLRQGNSIVDWHVNDVFPERLIDLVVVLRCDNSNLYSRLHARGYHDSKIEENLDAEIMGVVKQDAVESYEPHIVVELQSDTKEDMVSNVSRIVAWEKMWLEQHPDGVTNEYQGPRSDDEDDEDSE
notes: Fap7, conserved ATPase, S. cerevisiae (YDL166C); only the complex is printed as His6-Fap7:uS11; also called purified Fap7; Fap7 alone; source: E. coli BL21, purified
B1: binds (GST-Msn5); binds (GST-Kap123).
